# According to patent US20160347850A1 (AbbVie / Abbott, published 2016):
# Changes are numbered by the printed parent chain.
# B1: huAb1v6 (antibody, V domains shown)
# VH: EVQLVESGGGLVKPGGSLRLSCAASGFTFSDYGMNWVRQAPGKGLEWIAYISSGRSNIYYADTVKGRFTISRDNAKNSLYLQMNSLRAEDTAVYYCARSWGYFDVWGQGTTVTVSS
# VL: DIVMTQSPDSLAVSLGERATINCKSSQSLLNLGNQKNYLTWFQQKPGQPPKLLIYWASTRESGVPDRFSGSGSGTDFTLTISSLQAEDVAVYYCQNDYTYPLTFGQGTKLEIK
# B2: huAb1v2 (antibody, V domains shown)
# VH: B1 VH with I48V, A49S
# VL: B1 VL with L32T
# B3: huAb1v1 (antibody, V domains shown)
# VH: B1 VH
# VL: B1 VL with L32R
# B4: huAb1v5 (antibody, V domains shown)
# VH: B1 VH
# VL: B1 VL with L32T
# B5: huAb1v3 (antibody, V domains shown)
# VH: B1 VH with I48V, A49S
# VL: B1 VL
# B6: huAb1v4 (antibody, V domains shown)
# VH: B1 VH
# VL: B1 VL with L32P
# B7: huAb1v1CDR2v17 (antibody, V domains shown)
# VH: B1 VH with S56P
# VL: B1 VL with L32R
# B8: huAb1v1CDR2v3 (antibody, V domains shown)
# VH: B1 VH with S56E
# VL: B1 VL with L32R
# B9: huAb1v1CDR2v7 (antibody, V domains shown)
# VH: B1 VH with S56G
# VL: B1 VL with L32R
# B10: huAb1v1CDR2v2 (antibody, V domains shown)
# VH: B1 VH with S56D
# VL: B1 VL with L32R
# B11: huAb1v1CDR2v11 (antibody, V domains shown)
# VH: B1 VH with S56M
# VL: B1 VL with L32R
# B12: huAb1v1CDR2v6 (antibody, V domains shown)
# VH: B1 VH with S56L
# VL: B1 VL with L32R
# B13: huAb1v1CDR2v13 (antibody, V domains shown)
# VH: B1 VH with S56H
# VL: B1 VL with L32R
# B14: huAb1v1CDR2v15 (antibody, V domains shown)
# VH: B1 VH with S56Y
# VL: B1 VL with L32R
# B15: huAb1v1CDR2v14 (antibody, V domains shown)
# VH: B1 VH with S56F
# VL: B1 VL with L32R
# B16: huAb1v1CDR2v9 (antibody, V domains shown)
# VH: B1 VH with S56Q
# VL: B1 VL with L32R
# B17: huAb1v1CDR2v12 (antibody, V domains shown)
# VH: B1 VH with S56K
# VL: B1 VL with L32R
# B18: huAb1v1CDR2v4 (antibody, V domains shown)
# VH: B1 VH with S56R
# VL: B1 VL with L32R
# B19: huAb1v1CDR2v8 (antibody, V domains shown)
# VH: B1 VH with S56I
# VL: B1 VL with L32R
# B20: huAb1v1CDR2v16 (antibody, V domains shown)
# VH: B1 VH with S56A
# VL: B1 VL with L32R
# B21: huAb1v1CDR2v1 (antibody, V domains shown)
# VH: B1 VH with S56T
# VL: B1 VL with L32R
# B22: huAb1v1CDR2v5 (antibody, V domains shown)
# VH: B1 VH with S56V
# VL: B1 VL with L32R
# B23: huAb1v1CDR2v10 (antibody, V domains shown)
# VH: B1 VH with S56W
# VL: B1 VL with L32R
# B24: chimeric Ab1 (chAb1) (antibody, V domains shown)
# VH: B1 VH with R19K, L20V, G42E, S78T, Y80F, N84T, A88S, V93M, Q108T
# VL: DIVMTQSPSSLTVTAGEMVTMSCKSSQSLLNSGNQKNYLTWFQQKPGQPPKLLIYWASTRESGVPDRFAGSGSGTDFTLTISSVQAEDLAVYYCQNDYTYPLTFGAGTKLEIK
# notes: Murine Ab1 variable regions on human constant regions; also called chimeric antibody (Antibody 1 (Ab1))
# B25: chimeric Ab2 (chAb2) (antibody, V domains shown)
# VH: EVQLVESGGGLVKPGGSLKVSCAASGFTFSDYGMNWVRQSPEKGLEWIAYISSGRGNIYYADTVKGRFTISRDNAKNTLFLQMTSLRSEDTAMYYCARSWGYFDVWGTGTTVTVSS
# VL: B24 VL with M18K, A69T, I112L
# B26: chimeric Ab3 (chAb3) (antibody, V domains shown)
# VH: QVQLQQSGAELARPGASVKMSCKAFGYTFTSYTMHWVKQRPGQGLEWIGYINPSSDYPNYNQKFKDKATLTADKSSSTAYMQLSSLTSEDSAVYYCARWGYSFDYWGQGTTLTVSS
# VL: DIVMTQAAPSVSVIPGESVSISCRSSKSLLHSNGNTYLYWFLQRPGQSPQYLIYRMSTLASGVPDRFSGSGSGTAFTLRISRVEAEDVGVYYCMQHLEYPLTFGAGTKLELK
# notes: also called chimeric Antibody 3
# Target: T1, Human CD40 (human, UniProt P25942 21-277)
# T1 sequence (P25942 21-277 limits assumed): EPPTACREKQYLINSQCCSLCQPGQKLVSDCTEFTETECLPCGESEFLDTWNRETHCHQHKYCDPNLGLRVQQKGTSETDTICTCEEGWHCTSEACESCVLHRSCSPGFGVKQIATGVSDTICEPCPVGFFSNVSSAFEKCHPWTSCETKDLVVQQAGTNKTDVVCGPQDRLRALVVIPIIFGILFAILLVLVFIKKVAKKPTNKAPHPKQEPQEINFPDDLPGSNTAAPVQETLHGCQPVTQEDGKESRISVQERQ
# Assay: cell-based or functional assay
Antagonist: Jurkat/Reporter assay IC50 [nM],Agonist: huCD40 reporter assay IC50 [nM],Molecule
85,–,B1
> 100,–,B2
55,–,B3
> 100,–,B4
–,79,B5
–,49,B6

# Target: T1, Human CD40
# Assay: cell-based or functional assay
# Remark: another data set of the same source
row,"production of TNF from monocytes, EC50 (agonist assay format) [nM]",Molecule
1,1.9,MEGACD40L (Enzo) (ligand)

# Target: T1, Human CD40
# Assay: cell-based or functional assay
# Remark: another data set of the same source
row,Antagonist: Jurkat/Reporter assay (IC50 nM) [nM],Molecule
1,504,B7
2,219,B8
3,2.69,B9
4,> 1000,B10
5,> 1000,B11
6,> 1000,B12
7,62.4,B13
8,340,B14
9,21.9,B15
10,7.06,B16
11,236,B17
12,563,B18
13,> 1000,B19
14,30.1,B20
15,> 1000,B21
16,> 1000,B22
17,23,B23

# Target: T1, Human CD40
# Assay: FACS blocking of sCD40L binding to CD40 expressing HEK cells
# Method: FACS analysis was also used to determine whether the three chimeric antibodies could inhibit binding of soluble CD40 ligand (sCD40L) to CD40. Using CD40 expressing HEK cells, IC50 values were measured. As described in Table 10, each of the chimeric antibodies was able to block CD40 binding to its ligand.
row,IC50 [nM],Molecule
1,2.3,B24
2,1.4,B25
3,1.4,B26

# Target: T2, cyno CD40 (cynomolgus monkey, UniProt G7PG38 21-278)
# T2 construct: whole, on cells; also called cyCD40; cynomolgus monkey CD40
# Assay: FACS binding on HEK cells expressing cyCD40
row,binding result,Molecule
1,binds,B25

# Target: T1, Human CD40
# Assay: cell-based or functional assay
# Remark: another data set of the same source
row,antagonistic activity in comparison to antibody huAb1v1 [fold],Molecule
1,20,B9

# Target: T2, cyno CD40
# Assay: FACS on HEK cells expressing cyno CD40
row,binding result,Molecule
1,no binding,B26

# Target: T1, Human CD40
# Assay: cell-based or functional assay
# Remark: another data set of the same source
Antagonist: His-CD40L reporter assay IC50 [nM],Antagonist: Jurkat/Reporter assay IC50 [nM],Molecule
0.4,51,B24
0.3,3.4,B25
0.2,0.9,B26
